Experimental findings from the Immune Epitope Database (IEDB) are described below.

Among the targets are HLA-A*01:01; HLA-B*27:05; HLA-A*03:01; HLA-B*07:02.
Holding throughout (test): IEDB peptide-MHC binding, purified MHC/competitive/radioactivity; ≥ and ≤ were set here for values at or beyond the usual limits of such assays
Holding throughout (conditions): source organism: unidentified

Take ADTDSPLRY: in the experiment with HLA-A*01:01, the IC50 is 32 nM.

Turning to AHKEIHQQL, in the experiment with HLA-B*27:05, the IC50 came out at 83 nM.

As for ALSPVLIPR, in the experiment with HLA-A*03:01, the IC50 came to 4.8 nM.

Turning to APRRPTQGTVTF, in the experiment with HLA-B*07:02, the IC50 turned out to be 4.3 nM.

Take ARCGGALLAL: the IC50 in the experiment with HLA-B*27:05 came to 5.3 nM.

With ARVKEVEEMCKG, in the experiment with HLA-B*27:05, the IC50 was determined as 3170 nM.

For AVYEGHVSCVKG, the IC50 with HLA-A*03:01 stood at 12300 nM.

With DKDGCMVEQY, the IC50 with HLA-A*01:01 came to 10000 nM.

As to EKPHSEAGTAF, the IC50 in the experiment with HLA-A*01:01 was found to be 10000 nM.

Consider ERAGPLSGKKF, for which the IC50 in the experiment with HLA-B*27:05 was found to be 16 nM.

On to ETESQQIRY, for which the IC50 in the experiment with HLA-A*01:01 stood at 30 nM.

As for FPRVSTPLA, in the experiment with HLA-B*07:02, the IC50 is 98 nM.

For GATCELPLQK, in the experiment with HLA-A*03:01, the IC50 was 13100 nM.

For the sequence GCLDTAQRNLY, in the experiment with HLA-A*01:01, the IC50 was found to be 201 nM.

As to GFQNALLVR, in the experiment with HLA-A*03:01, the IC50 is 8480 nM.

On to GITCPQVLIQK, for which, in the experiment with HLA-A*03:01, the IC50 amounted to 819 nM.

Consider GKLCQHIIKR, for which the IC50 in the experiment with HLA-B*27:05 amounted to 5760 nM.

As to GLELSGCIVY, the IC50 with HLA-A*01:01 was 5130 nM.

With GRFEVGKKICLG, in the experiment with HLA-B*27:05, the IC50 came out at 32 nM.

As for GRNKLLQSW, the IC50 with HLA-B*27:05 was 10000 nM.

Turning to GRVCSNRHGLIR, the IC50 with HLA-B*27:05 amounted to 657 nM.

Take GSTCIYGGAPK: the IC50 in the experiment with HLA-A*03:01 was found to be 666 nM.

Turning to GVVCPVSDILYK, the IC50 with HLA-A*03:01 stood at 202 nM.

Regarding GVWEEVGCAKG, the IC50 with HLA-B*07:02 stood at 266 nM.

In the case of IISIVTGLK, the IC50 with HLA-A*03:01 came out at 14 nM.

Regarding KISFPIIAK, the IC50 with HLA-A*03:01 is 0.78 nM.

Consider LDAGLKKQFYK, for which the IC50 in the experiment with HLA-A*03:01 came out at 960 nM.

On to LGPRAAAAGAL, for which the IC50 in the experiment with HLA-B*07:02 amounted to 33 nM.

Consider LKRDKLFEK, for which the IC50 with HLA-B*27:05 was 10000 nM.

For the sequence LNDRGGSVIK, in the experiment with HLA-A*03:01, the IC50 was found to be 10000 nM.

In the case of LPPPARPPI, in the experiment with HLA-B*07:02, the IC50 is 111 nM.

For LPRGGSVLVTCG, in the experiment with HLA-B*07:02, the IC50 amounted to 554 nM.

Take LVIDNGSGMCKG: in the experiment with HLA-A*01:01, the IC50 worked out at 26600 nM.

For NPRGARVIAL, the IC50 with HLA-B*07:02 was 0.96 nM.

As for NTCQDAAIVGYK, the IC50 with HLA-A*03:01 amounted to 1310 nM.

Take PGREAVSKL: the IC50 with HLA-B*07:02 was 11500 nM.

Turning to PGRGARRLLALV, the IC50 with HLA-B*07:02 came out at 713 nM.

For PHSPALQPI, the IC50 with HLA-A*01:01 was 1710 nM.

PKASSGSFSL: in the experiment with HLA-B*07:02, the IC50 is 11300 nM.

As to PKLLGPLSL, the IC50 in the experiment with HLA-B*27:05 worked out at 27600 nM.

For the sequence PLRDARVSDL, the IC50 in the experiment with HLA-B*07:02 turned out to be 8490 nM.

PRGSGGIGL: the IC50 with HLA-B*27:05 came to 336 nM.

For the sequence PRPRGGSDL, in the experiment with HLA-B*27:05, the IC50 is 466 nM.

On to PSTLNVGTL, for which the IC50 with HLA-B*07:02 worked out at 10000 nM.

As for PSVGPVLGR, the IC50 in the experiment with HLA-A*03:01 was determined as 2180 nM.

In the case of PVEKNTVEL, the IC50 with HLA-B*07:02 was 9210 nM.

PVRPAAAAATAL: the IC50 with HLA-B*07:02 was 3230 nM.

Turning to QDKVKTLTGK, the IC50 in the experiment with HLA-A*03:01 came to 10000 nM.

Turning to QFLEENTNILK, in the experiment with HLA-A*03:01, the IC50 amounted to 18600 nM.

Consider QTALVEIIK, for which the IC50 with HLA-A*03:01 amounted to 2720 nM.

In the case of RAAAPPLPR, the IC50 with HLA-A*03:01 was 175 nM.

RAAPPPPPR: the IC50 with HLA-A*03:01 came out at 56 nM.

For the sequence RAVPGPPAR, the IC50 with HLA-A*03:01 was determined as 372 nM.

For the sequence RGLASPPPVR, the IC50 in the experiment with HLA-B*27:05 was found to be 833 nM.

As for RIKFSDDRVCKG, the IC50 with HLA-A*03:01 was 25700 nM.

As to RLADKSVLVCKG, in the experiment with HLA-A*03:01, the IC50 is 343 nM.

Regarding RPRWGAAAS, in the experiment with HLA-B*07:02, the IC50 was 3.6 nM.

RRNDKQLCIG: in the experiment with HLA-B*27:05, the IC50 came to 108 nM.

For the sequence RRVSQGLLGK, the IC50 with HLA-B*27:05 amounted to 1.6 nM.

As to RRVYLEGRCVG, the IC50 with HLA-B*27:05 amounted to 24 nM.

As to RRYNGGVGRCQ, in the experiment with HLA-B*27:05, the IC50 was 16 nM.

Turning to RSLTGILGK, in the experiment with HLA-A*03:01, the IC50 came to 238 nM.

For the sequence RTGVPPTIR, in the experiment with HLA-A*03:01, the IC50 came out at 2590 nM.

With RVFPSNVICKG, the IC50 with HLA-A*03:01 was determined as 1830 nM.

Consider SLFSTSSKL, for which the IC50 in the experiment with HLA-A*03:01 came out at 8740 nM.

As to SPLAASKECAV, the IC50 with HLA-B*07:02 came out at 367 nM.

On to STLTDSLVCGK, for which, in the experiment with HLA-A*03:01, the half-maximal inhibitory concentration (IC50) is 31 nM.

In the case of SVRELNFTK, in the experiment with HLA-A*03:01, the IC50 came to 119 nM.

On to TRLVLDPVR, for which the IC50 with HLA-B*27:05 came to 241 nM.

Take TRSTGLLGVK: the IC50 with HLA-B*27:05 stood at 1520 nM.

For the sequence VPAQSRPCVG, the IC50 with HLA-B*07:02 amounted to 4590 nM.

Turning to VRSPGATASSL, the IC50 with HLA-B*27:05 amounted to 986 nM.

As for WSVMDQDSL, the IC50 with HLA-B*07:02 worked out at 10000 nM.
